Reference: the RNAGym collection of RNA variant scans (doi:10.1093/molbev/msab373)

B1: Azoarcus group I ribozyme (parent)
chain: GUGCCUUGCGCCGGGAAACCACGCAAGGGAUGGUGUCAAAUUCGGCGAAACCUAAGCGCCCGCCCGGGCGUAUGGCAACGCCGAGCCAAGCUUCGGCGCCUGCGCCGAUGAAGGUGUAGAGACUAGACGGCACCCACCUAAGGCAAACGCUAUGGUGAAGGCAUAGUCCAGGGAGUGGCGAAAGUCACACAAACCGG

Variants of: B1
Assay: reverse-splicing fitness (ratio to wild type); higher = more active; in vitro selection; Mg2+ level not given
How it was run: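 An in vitro group I ribozyme library with randomized positions was T7-transcribed and gel-purified. In triplicate, 10 pmol RNA in EPPS pH 7.5 was reacted with 50 pmoles of a 30-nt RNA substrate for 1 h at 37 °C across several added MgCl2 levels (1–48 mM), then stopped with EDTA. Products were reverse transcribed from a substrate-complementary primer, PCR-amplified and sequenced (HiSeq 4000). Fitness is a variant's read proportion after selection over that before, normalised to wild type.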

Row | Variant | reverse-splicing fitness
1 | GUGCCUUGCGCCGGGAAACCACGCAAGGGAUGGUGUCAAAUUCGGCGAAACCUAAGCGCCCGCCCGGGCGUAUGGCAACGCGGAGCCAAGCUUCGGCGCCUGCGCCGAUGCAGGUGUAGUGACUAGACGGCACCCACCUAAGGCGAACGCUAUGGUGAAGGCAUAGUCCAGGGAGAGGCGAAAGUCACACAAACCGG | 0.0112
2 | GUGCCUUGCGCCGGGAAACCACGCAAGGGAUGGUGUCAAAUUCGGCGAAACCUAAGCGCCCGCCCGGGCGUAUGGCAACGCGGAGCCAAGCUUCGGCGCCUGCGCCGAUGCAGGUGUAGUGACUAGACGGCACCCACCUAAGGCGAACGCUAUGGUGAAGGCAUAGUCCAGGGAGGGGCGAAAGUCACACAAACCGG | 0.004
3 | GUGCCUUGCGCCGGGAAACCACGCAAGGGAUGGUGUCAAAUUCGGCGAAACCUAAGCGCCCGCCCGGGCGUAUGGCAACGCGGAGCCAAGCUUCGGCGCCUGCGCCGAUGCAGGUGUAGUGACUAGACGGCACCCACCUAAGGCGAACGCUAUGGUGAAGGCAUAGUCCAGGGAGCGGCGAAAGUCACACAAACCGG | 0.0203
4 | GUGCCUUGCGCCGGGAAACCACGCAAGGGAUGGUGUCAAAUUCGGCGAAACCUAAGCGCCCGCCCGGGCGUAUGGCAACGCGGAGCCAAGCUUCGGCGCCUGCGCCGAUGCAGGUGUAGUGACUAGACGGCACCCACCUAAGGCUAACGAUAUGGUGAAGGCAUAGUCCAGGGAGUGGCGAAAGUCACACAAACCGG | 0.00799
5 | GUGCCUUGCGCCGGGAAACCACGCAAGGGAUGGUGUCAAAUUCGGCGAAACCUAAGCGCCCGCCCGGGCGUAUGGCAACGCGGAGCCAAGCUUCGGCGCCUGCGCCGAUGCAGGUGUAGUGACUAGACGGCACCCACCUAAGGCGAACGCUAUGGUGAAGGCAUAGUCAAGGGAGUGGCGAAAGUCACACAAACCGG | 0.00335
6 | GUGCCUUGCGCCGGGAAACCACGCAAGGGAUGGUGUCAAAUUCGGCGAAACCUAAGCGCCCGCCCGGGCGUAUGGCAACGCGGAGCCAAGCUUCGGCGCCUGCGCCGAUGCAGGUGUAGUGACUAGACGGCACCCACCUAAGGCGAACGCUAUGGUGAAGGCAUAGUCUAGGGAGUGGCGAAAGUCACACAAACCGG | 0.00527
7 | GUGCCUUGCGCCGGGAAACCACGCAAGGGAUGGUGUCAAAUUCGGCGAAACCUAAGCGCCCGCCCGGGCGUAUGGCAACGCGGAGCCAAGCUUCGGCGCCUGCGCCGAUGCAGGUGUAGUGACUAGACGGCACCCACCUAAGGCGAACGCUAUGGUGAAGGCAUAGUCGAGGGAGUGGCGAAAGUCACACAAACCGG | 0.00473
8 | GUGCCUUGCGCCGGGAAACCACGCAAGGGAUGGUGUCAAAUUCGGCGAAACCUAAGCGCCCGCCCGGGCGUAUGGCAACGCGGAGCCAAGCUUCGGCGCCUGCGCCGAUGCAGGUGUAGUGACUAGACGGCACCCACCUAAGGCGAACGUUAUGGUGAAGGCAUAGUCUAGGGAGGGGCGAAAGUCACACAAACCGG | 0.00262
9 | GUGCCUUGCGCCGGGAAACCACGCAAGGGAUGGUGUCAAAUUCGGCGAAACCUAAGCGCCCGCCCGGGCGUAUGGCAACGCGGAGCCAAGCUUCGGCGCCUGCGCCGAUGCAGGUGUAGUGACUAGACGGCACCCACCUAAGGCGAACGUUAUGGUGAAGGCAUAGUCUAGGGAGCGGCGAAAGUCACACAAACCGG | 0.00492
10 | GUGCCUUGCGCCGGGAAACCACGCAAGGGAUGGUGUCAAAUUCGGCGAAACCUAAGCGCCCGCCCGGGCGUAUGGCAACGCGGAGCCAAGCUUCGGCGCCUGCGCCGAUGCAGGUGUAGUGACUAGACGGCACCCACCUAAGGCUAACGAUAUGGUGAAGGCAUAGUCGAGGGAGCGGCGAAAGUCACACAAACCGG | 0.00248
11 | GUGCCUUGCGCCGGGAAACCACGCAAGGGAUGGUGUCAAAUUCGGCGAAACCUAAGCGCCCGCCCGGGCGUAUGGCAACGCGGAGCCAAGCUUCGGCGCCUGCGCCGAUGCAGGUGUAGUGACUAGACGGCACCCACCUAAGGCUAACGAUAUGGUGAAGGCAUAGUCGAGGGAGAGGCGAAAGUCACACAAACCGG | 0.00297
12 | GUGCCUUGCGCCGGGAAACCACGCAAGGGAUGGUGUCAAAUUCGGCGAAACCUAAGCGCCCGCCCGGGCGUAUGGCAACGCGGAGCCAAGCUUCGGCGCCUGCGCCGAUGCAGGUGUAGUGACUAGACGGCACCCACCUAAGGCUAACGAUAUGGUGAAGGCAUAGUCGAGGGAGGGGCGAAAGUCACACAAACCGG | 0.00223
13 | GUGCCUUGCGCCGGGAAACCACGCAAGGGAUGGUGUCAAAUUCGGCGAAACCUAAGCGCCCGCCCGGGCGUAUGGCAACGCGGAGCCAAGCUUCGGCGCCUGCGCCGAUGCAGGUGUAGUGACUAGACGGCACCCACCUAAGGCGAACGCUAUGGUGAAGGCAUAGUCAAGGGAGGGGCGAAAGUCACACAAACCGG | 0.00218
14 | GUGCCUUGCGCCGGGAAACCACGCAAGGGAUGGUGUCAAAUUCGGCGAAACCUAAGCGCCCGCCCGGGCGUAUGGCAACGCGGAGCCAAGCUUCGGCGCCUGCGCCGAUGCAGGUGUAGUGACUAGACGGCACCCACCUAAGGCGAACGCUAUGGUGAAGGCAUAGUCAAGGGAGCGGCGAAAGUCACACAAACCGG | 0.00311
15 | GUGCCUUGCGCCGGGAAACCACGCAAGGGAUGGUGUCAAAUUCGGCGAAACCUAAGCGCCCGCCCGGGCGUAUGGCAACGCGGAGCCAAGCUUCGGCGCCUGCGCCGAUGCAGGUGUAGUGACUAGACGGCACCCACCUAAGGCGAACGCUAUGGUGAAGGCAUAGUCAAGGGAGAGGCGAAAGUCACACAAACCGG | 0.00424
16 | GUGCCUUGCGCCGGGAAACCACGCAAGGGAUGGUGUCAAAUUCGGCGAAACCUAAGCGCCCGCCCGGGCGUAUGGCAACGCGGAGCCAAGCUUCGGCGCCUGCGCCGAUGCAGGUGUAGUGACUAGACGGCACCCACCUAAGGCUAACGAUAUGGUGAAGGCAUAGUCAAGGGAGGGGCGAAAGUCACACAAACCGG | 0.00195
17 | GUGCCUUGCGCCGGGAAACCACGCAAGGGAUGGUGUCAAAUUCGGCGAAACCUAAGCGCCCGCCCGGGCGUAUGGCAACGCGGAGCCAAGCUUCGGCGCCUGCGCCGAUGCAGGUGUAGUGACUAGACGGCACCCACCUAAGGCUAACGAUAUGGUGAAGGCAUAGUCAAGGGAGAGGCGAAAGUCACACAAACCGG | 0.00336
18 | GUGCCUUGCGCCGGGAAACCACGCAAGGGAUGGUGUCAAAUUCGGCGAAACCUAAGCGCCCGCCCGGGCGUAUGGCAACGCGGAGCCAAGCUUCGGCGCCUGCGCCGAUGCAGGUGUAGUGACUAGACGGCACCCACCUAAGGCUAACGAUAUGGUGAAGGCAUAGUCAAGGGAGCGGCGAAAGUCACACAAACCGG | 0.00267
19 | GUGCCUUGCGCCGGGAAACCACGCAAGGGAUGGUGUCAAAUUCGGCGAAACCUAAGCGCCCGCCCGGGCGUAUGGCAACGCGGAGCCAAGCUUCGGCGCCUGCGCCGAUGCAGGUGUAGUGACUAGACGGCACCCACCUAAGGCGAACGCUAUGGUGAAGGCAUAGUCGAGGGAGGGGCGAAAGUCACACAAACCGG | 0.00194
20 | GUGCCUUGCGCCGGGAAACCACGCAAGGGAUGGUGUCAAAUUCGGCGAAACCUAAGCGCCCGCCCGGGCGUAUGGCAACGCGGAGCCAAGCUUCGGCGCCUGCGCCGAUGCAGGUGUAGUGACUAGACGGCACCCACCUAAGGCGAACGCUAUGGUGAAGGCAUAGUCGAGGGAGCGGCGAAAGUCACACAAACCGG | 0.00363
21 | GUGCCUUGCGCCGGGAAACCACGCAAGGGAUGGUGUCAAAUUCGGCGAAACCUAAGCGCCCGCCCGGGCGUAUGGCAACGCGGAGCCAAGCUUCGGCGCCUGCGCCGAUGCAGGUGUAGUGACUAGACGGCACCCACCUAAGGCGAACGCUAUGGUGAAGGCAUAGUCGAGGGAGAGGCGAAAGUCACACAAACCGG | 0.00387
22 | GUGCCUUGCGCCGGGAAACCACGCAAGGGAUGGUGUCAAAUUCGGCGAAACCUAAGCGCCCGCCCGGGCGUAUGGCAACGCGGAGCCAAGCUUCGGCGCCUGCGCCGAUGCAGGUGUAGUGACUAGACGGCACCCACCUAAGGCGAACGCUAUGGUGAAGGCAUAGUCUAGGGAGGGGCGAAAGUCACACAAACCGG | 0.0022
23 | GUGCCUUGCGCCGGGAAACCACGCAAGGGAUGGUGUCAAAUUCGGCGAAACCUAAGCGCCCGCCCGGGCGUAUGGCAACGCGGAGCCAAGCUUCGGCGCCUGCGCCGAUGCAGGUGUAGUGACUAGACGGCACCCACCUAAGGCGAACGCUAUGGUGAAGGCAUAGUCUAGGGAGAGGCGAAAGUCACACAAACCGG | 0.00525
24 | GUGCCUUGCGCCGGGAAACCACGCAAGGGAUGGUGUCAAAUUCGGCGAAACCUAAGCGCCCGCCCGGGCGUAUGGCAACGCGGAGCCAAGCUUCGGCGCCUGCGCCGAUGCAGGUGUAGUGACUAGACGGCACCCACCUAAGGCGAACGCUAUGGUGAAGGCAUAGUCUAGGGAGCGGCGAAAGUCACACAAACCGG | 0.00468
25 | GUGCCUUGCGCCGGGAAACCACGCAAGGGAUGGUGUCAAAUUCGGCGAAACCUAAGCGCCCGCCCGGGCGUAUGGCAACGCGGAGCCAAGCUUCGGCGCCUGCGCCGAUGCAGGUGUAGUGACUAGACGGCACCCACCUAAGGCUAACGCUAUGGUGAAGGCAUAGUCCAGGGAGUGGCGAAAGUCACACAAACCGG | 0.0481
26 | GUGCCUUGCGCCGGGAAACCACGCAAGGGAUGGUGUCAAAUUCGGCGAAACCUAAGCGCCCGCCCGGGCGUAUGGCAACGCGGAGCCAAGCUUCGGCGCCUGCGCCGAUGCAGGUGUAGUGACUAGACGGCACCCACCUAAGGCGAACGUUAUGGUGAAGGCAUAGUCCAGGGAGAGGCGAAAGUCACACAAACCGG | 0.0115
27 | GUGCCUUGCGCCGGGAAACCACGCAAGGGAUGGUGUCAAAUUCGGCGAAACCUAAGCGCCCGCCCGGGCGUAUGGCAACGCGGAGCCAAGCUUCGGCGCCUGCGCCGAUGCAGGUGUAGUGACUAGACGGCACCCACCUAAGGCGAACGUUAUGGUGAAGGCAUAGUCCAGGGAGCGGCGAAAGUCACACAAACCGG | 0.0162
28 | GUGCCUUGCGCCGGGAAACCACGCAAGGGAUGGUGUCAAAUUCGGCGAAACCUAAGCGCCCGCCCGGGCGUAUGGCAACGCGGAGCCAAGCUUCGGCGCCUGCGCCGAUGCAGGUGUAGUGACUAGACGGCACCCACCUAAGGCGAACGUUAUGGUGAAGGCAUAGUCCAGGGAGGGGCGAAAGUCACACAAACCGG | 0.00399
29 | GUGCCUUGCGCCGGGAAACCACGCAAGGGAUGGUGUCAAAUUCGGCGAAACCUAAGCGCCCGCCCGGGCGUAUGGCAACGCGGAGCCAAGCUUCGGCGCCUGCGCCGAUGCAGGUGUAGUGACUAGACGGCACCCACCUAAGGCUAACGAUAUGGUGAAGGCAUAGUCGAGGGAGUGGCGAAAGUCACACAAACCGG | 0.00295
30 | GUGCCUUGCGCCGGGAAACCACGCAAGGGAUGGUGUCAAAUUCGGCGAAACCUAAGCGCCCGCCCGGGCGUAUGGCAACGCGGAGCCAAGCUUCGGCGCCUGCGCCGAUGCAGGUGUAGUGACUAGACGGCACCCACCUAAGGCUAACGAUAUGGUGAAGGCAUAGUCAAGGGAGUGGCGAAAGUCACACAAACCGG | 0.00247
